Experimental data from PMC10945777 (Proceedings of the National Academy of Sciences of the …, 2024).
Blank lines part the entries; values can stand above or below the compound they belong to.

Tests used:
[1] = target: NrtBCD (nitrate site in NrtB dimer) (Nostoc sp. PCC 7120 = FACHB-418, UniProt A0ACD6B946); experiment: colorimetric ATPase assay; type: biochemical; conditions: 2 mM MgCl2, 50 mM Tris-HCl pH 8.0, 150 mM NaCl, 0.02% GDN, 37 °C
[2] = target: signaling protein PII of Anabaena sp. PCC 7120 (Anabaena sp. PCC 7120); experiment: cryo-EM structure
[3] = target: NrtB of Anabaena sp. PCC 7120 (transmembrane subunit, as it stands in NrtBCD) (Anabaena sp. PCC 7120); experiment: cryo-EM structure

Compound: O=[N+]([O-])O [nitrate]
fold stimulation of ATPase activity at 8 mM [1]: ~ 2.5 fold

stoichiometry N [2]: 3
Compound: signaling protein PII of Anabaena sp. PCC 7120 (natural protein)

stoichiometry N [3]: 2
Compound: NrtB of Anabaena sp. PCC 7120 (transmembrane subunit, as it stands in NrtBCD) (natural protein)
